Data as given in patent publication US20170360911A1 (SAPPORO MEDICAL UNIVERSITY, published 2017).

How the values were obtained:
HLA-A*24:02 = target: T1, HLA-A*24:02 (human); assay: T2-A24 MHC class I stabilization, flow cytometry, anti-HLA-A24 17A10-FITC, peptide 100 ug/mL;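 also: peptide exposure stabilizes otherwise empty class I molecules on T2 cell surfaces, so surface class I level reflects how strongly the peptide binds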
T1 construct: whole, on cells; Empty class I molecule on T2-A24 cells
Protocol: T2 cells can usually only express a low level of empty MHC class I molecules on the cell surface. However, when a peptide that can bind to the MHC class I molecule is added, the empty MHC class I molecule binds to the peptide and can be present on the cell surface in a stable manner. Therefore, the cell surface MHC class I expression level depends on the MHC class I binding affinity of a peptide.
The T2-A24 cells were subcultured at 37° C. under 5% CO₂. […] These peptides were dissolved in DMSO and further diluted by 200 times with RPMI 160 medium. A cell suspension and the peptide solution were mixed and cultured under conditions of 5% CO₂ and 26° C. for 16 to 18 hours. Co-culturing was carried out at a temperature of 37° C. for a further 3 hours, the supernatant was then removed by centrifuging, and cells were isolated. […] Subsequently, the cells were washed with 3% FBS-containing PBS, 4% paraformaldehyde phosphate buffer was added, and the mixture was allowed to stand at room temperature for 10 minutes to thus fix the cells. The fixed cells were subjected to measurement of FITC fluorescence intensity by a flow cytometer (FACScan). The mean fluorescence intensity (MFI) was calculated as a solvent ratio.

HLA-A*02:01 = target: T2, HLA-A*02:01 (human); assay: T2-A24 MHC class I stabilization, flow cytometry, anti-HLA-A02 BB7.2-FITC, peptide 100 ug/mL
T2 construct: whole, on cells; Empty class I molecule on TAP-deficient T2-A24 cells; detected with anti-HLA-A02 antibody BB7.2

Binder: VVVNAYEHI [As340_9]
- MFI (solvent ratio) (HLA-A*24:02): 1 ratio to solvent
- MFI (solvent ratio) (HLA-A*02:01): 0.9 ratio to solvent

Binder: HLSVLFGHV [As80_9]
- MFI (solvent ratio) (HLA-A*24:02): 2.1 ratio to solvent
- MFI (solvent ratio) (HLA-A*02:01): 1.6 ratio to solvent

Binder: AAQPEICYQLL [As301_11]
- MFI (solvent ratio) (HLA-A*24:02): 2 ratio to solvent
- MFI (solvent ratio) (HLA-A*02:01): 2.6 ratio to solvent

Binder: YLLLEPEGII [As416_10]
- MFI (solvent ratio) (HLA-A*02:01): 2.8 ratio to solvent

Binder: IYPPQFHKV (also called ASB4 peptide) [IV9]
- MFI (solvent ratio) (HLA-A*24:02): 3.3 ratio to solvent
- MFI (solvent ratio) (HLA-A*02:01): 0.9 ratio to solvent

Binder: CYQLLLNHGA [As307_10]
- MFI (solvent ratio) (HLA-A*24:02): 1.9 ratio to solvent
- MFI (solvent ratio) (HLA-A*02:01): 2.5 ratio to solvent

Binder: DFGKLKAIL [As29_9]
- MFI (solvent ratio) (HLA-A*24:02): 1 ratio to solvent
- MFI (solvent ratio) (HLA-A*02:01): 1 ratio to solvent

Binder: KILCDRGAKL [As124_10]
- MFI (solvent ratio) (HLA-A*24:02): 2.2 ratio to solvent
- MFI (solvent ratio) (HLA-A*02:01): 1.6 ratio to solvent

Binder: HFCTTPSSIL [As145_10]
- MFI (solvent ratio) (HLA-A*24:02): 1.2 ratio to solvent
- MFI (solvent ratio) (HLA-A*02:01): 1 ratio to solvent

Binder: RIYPPQFHKV [As318_10]
- MFI (solvent ratio) (HLA-A*24:02): 3.6 ratio to solvent

Binder: HVLMHMMLEA [As265_10]
- MFI (solvent ratio) (HLA-A*02:01): 2 ratio to solvent

Binder: KYWDFYHSLFTV [As365_12]
- MFI (solvent ratio) (HLA-A*24:02): 2.4 ratio to solvent
- MFI (solvent ratio) (HLA-A*02:01): 1 ratio to solvent

Binder: PLAIAAYWAL [As211_10]
- MFI (solvent ratio) (HLA-A*24:02): 2.1 ratio to solvent
- MFI (solvent ratio) (HLA-A*02:01): 1.1 ratio to solvent

B1: As271_10 (peptide)
peptide: MLEAGAEANL
notes: read as 39 from its place between 38 and 40
- MFI (solvent ratio) (HLA-A*24:02): 1.2 ratio to solvent
- MFI (solvent ratio) (HLA-A*02:01): 1 ratio to solvent

Binder: SVLFGHVECL [As82_10]
- MFI (solvent ratio) (HLA-A*24:02): 2.7 ratio to solvent
- MFI (solvent ratio) (HLA-A*02:01): 3.3 ratio to solvent

Binder: ATGLHLSVLF [As76_10]
- MFI (solvent ratio) (HLA-A*24:02): 2.1 ratio to solvent
- MFI (solvent ratio) (HLA-A*02:01): 0.9 ratio to solvent

Binder: SLPLSLKKYL [As408_10]
- MFI (solvent ratio) (HLA-A*24:02): 1 ratio to solvent
- MFI (solvent ratio) (HLA-A*02:01): 1 ratio to solvent

Binder: DFYHSLFTV [As368_9]
- MFI (solvent ratio) (HLA-A*24:02): 1.1 ratio to solvent
- MFI (solvent ratio) (HLA-A*02:01): 1 ratio to solvent

Binder: ILCDRGAKL [As125_9]
- MFI (solvent ratio) (HLA-A*24:02): 1.8 ratio to solvent
- MFI (solvent ratio) (HLA-A*02:01): 1.9 ratio to solvent

Binder: SILCAKQLV [As152_9]
- MFI (solvent ratio) (HLA-A*02:01): 1.8 ratio to solvent

Binder: TLMHLSRCAI [As383_10_5L]
- MFI (solvent ratio) (HLA-A*24:02): 1 ratio to solvent
- MFI (solvent ratio) (HLA-A*02:01): 2.4 ratio to solvent

Binder: GLSELVAFYV [As186_10]
- MFI (solvent ratio) (HLA-A*24:02): 1.1 ratio to solvent
- MFI (solvent ratio) (HLA-A*02:01): 2.6 ratio to solvent

Binder: LLNHGAARI [As311_9]
- MFI (solvent ratio) (HLA-A*24:02): 0.9 ratio to solvent
- MFI (solvent ratio) (HLA-A*02:01): 0.9 ratio to solvent

Binder: KLVKRNFLEAL [As15_11]
- MFI (solvent ratio) (HLA-A*24:02): 1 ratio to solvent
- MFI (solvent ratio) (HLA-A*02:01): 1 ratio to solvent

Binder: RMLLDYKAEV [As236_10]
- MFI (solvent ratio) (HLA-A*24:02): 1 ratio to solvent
- MFI (solvent ratio) (HLA-A*02:01): 3.3 ratio to solvent

Binder: QYVLKVTSV [As290_9]
- MFI (solvent ratio) (HLA-A*02:01): 1 ratio to solvent

Binder: HFGLSELVAFYV [As184_12]
- MFI (solvent ratio) (HLA-A*24:02): 3.2 ratio to solvent
- MFI (solvent ratio) (HLA-A*02:01): 3.1 ratio to solvent

Binder: KYWDFYHSL [As365_9]
- MFI (solvent ratio) (HLA-A*24:02): 2.5 ratio to solvent
- MFI (solvent ratio) (HLA-A*02:01): 1.1 ratio to solvent

Binder: PLLSLPLSL [As405_9]
- MFI (solvent ratio) (HLA-A*24:02): 2.8 ratio to solvent
- MFI (solvent ratio) (HLA-A*02:01): 2.2 ratio to solvent

Binder: QIDVDTVFEV (41-50 follows from start and length) [As41_10]
- MFI (solvent ratio) (HLA-A*24:02): 1.1 ratio to solvent
- MFI (solvent ratio) (HLA-A*02:01): 1.2 ratio to solvent

Binder: HVECLLVLL [As87_9]
- MFI (solvent ratio) (HLA-A*24:02): 1.6 ratio to solvent
- MFI (solvent ratio) (HLA-A*02:01): 1.5 ratio to solvent

Binder: LLLNHGAARI [As310_10]
- MFI (solvent ratio) (HLA-A*24:02): 1.2 ratio to solvent

Binder: VLFGHVECLL [As83_10]
- MFI (solvent ratio) (HLA-A*24:02): 2.8 ratio to solvent
- MFI (solvent ratio) (HLA-A*02:01): 3.6 ratio to solvent

Binder: GYWLPSYKL [As63_9]
- MFI (solvent ratio) (HLA-A*24:02): 1.2 ratio to solvent
- MFI (solvent ratio) (HLA-A*02:01): 1.1 ratio to solvent

Binder: IQYVLKVTSV [As289_10]
- MFI (solvent ratio) (HLA-A*24:02): 1.5 ratio to solvent
- MFI (solvent ratio) (HLA-A*02:01): 1.2 ratio to solvent

Binder: LMDINGCAAI [As280_10]
- MFI (solvent ratio) (HLA-A*24:02): 1.2 ratio to solvent
- MFI (solvent ratio) (HLA-A*02:01): 3.1 ratio to solvent

Binder: AILIQRQIDV [As35_10]
- MFI (solvent ratio) (HLA-A*24:02): 1.1 ratio to solvent
- MFI (solvent ratio) (HLA-A*02:01): 3.4 ratio to solvent

Binder: LVLLDHNATI [As92_10]
- MFI (solvent ratio) (HLA-A*24:02): 1.1 ratio to solvent
- MFI (solvent ratio) (HLA-A*02:01): 2.6 ratio to solvent

Binder: FEVEDENMVL [As48_10]
- MFI (solvent ratio) (HLA-A*02:01): 1 ratio to solvent

Binder: KQLVWRGANV [As157_10]
- MFI (solvent ratio) (HLA-A*24:02): 1 ratio to solvent
- MFI (solvent ratio) (HLA-A*02:01): 1.2 ratio to solvent

Binder: AIPLLSLPL [As403_9]
- MFI (solvent ratio) (HLA-A*24:02): 1.1 ratio to solvent
- MFI (solvent ratio) (HLA-A*02:01): 0.9 ratio to solvent

Binder: AFYVEHGAIF [As192_10]
- MFI (solvent ratio) (HLA-A*24:02): 2.2 ratio to solvent
- MFI (solvent ratio) (HLA-A*02:01): 1.1 ratio to solvent

Binder: CYSLSGHTAL [As135_10]
- MFI (solvent ratio) (HLA-A*24:02): 2.4 ratio to solvent
- MFI (solvent ratio) (HLA-A*02:01): 1.6 ratio to solvent

Binder: KLKSSWATGL [As70_10]
- MFI (solvent ratio) (HLA-A*24:02): 1 ratio to solvent
- MFI (solvent ratio) (HLA-A*02:01): 1.1 ratio to solvent
